In the assay the target is T1, EAiC3b (erythrocytes coated with iC3b) (Homo sapiens, UniProt P01024).
T1 construct: EAiC3b (erythrocytes coated with iC3b) were generated by treating EAC3b with purified human factors H and I; tissue Sigma Chemical Co. (C5-deficient human serum); host or cells: human serum C3 deposited on IgM-coated erythrocytes
Nature of the assay: Erythrocyte binding assay, EAiC3b on immobilized proteins or peptides. Particulars: 37° C., divalent cations. The protocol:
Erythrocytes (E) coated with rabbit anti-E IgM (EA) or C3b (EAC3b) were prepared as described by Dana et al. (J. Immunol. 73:153, 1984). EAiC3b (erythrocytes coated with iC3b) were generated by treating EAC3b with purified human factors H and I, or alternatively prepared from EA using C5-deficient human serum (Sigma Chemical Co., St. Louis, Mo.). EAiC3b cells were washed and stored in isotonic veronal-buffered saline (VBS^2+), pH 7.4, containing 0.15 mM calcium-1 mM magnesium (MgCl2+CaCl2) and 1 mg/ml Soybean Trypsin Inhibitor (STI; Worthington Biochemical Co., Freehold, N.J.) at 1.5×10^8 cells/ml. […]
Immobilization of recombinant proteins and peptides: Purified recombinant A-domain was added to Immulon-2 96-well microtiter plates (Dynatech) overnight. […] Binding of the anti-CD11b mabs to the coated rA-domain was measured by ELISA and read using a plate reader (Molecular Dynamics).
Erythrocyte binding assays: Fluoresceinated EAiC3b, EAC3b or EA were resuspended to 1.5×10^8/ml in buffer A, and added […] to wells containing immobilized proteins or peptides in a total volume of 100 ml. […] Fluorescence was quantified (excitatory wavelength, 490 nm, emission wavelength, 510 nm) using a SLM 8000 fluorometer (SLM Instruments, Urbana, Ill.). […] The effect of temperature was evaluated in the presence of 1 mM MnCl2 at 37° C. and at 4° C.

The source of these data is patent US20050227296A1, “Method for indentifying integrin antagonists” (The General Hospital Corporation, a Massachusetts …, priority 1988, published 2005).

T1 sequence (P01024 749-1303 limits assumed): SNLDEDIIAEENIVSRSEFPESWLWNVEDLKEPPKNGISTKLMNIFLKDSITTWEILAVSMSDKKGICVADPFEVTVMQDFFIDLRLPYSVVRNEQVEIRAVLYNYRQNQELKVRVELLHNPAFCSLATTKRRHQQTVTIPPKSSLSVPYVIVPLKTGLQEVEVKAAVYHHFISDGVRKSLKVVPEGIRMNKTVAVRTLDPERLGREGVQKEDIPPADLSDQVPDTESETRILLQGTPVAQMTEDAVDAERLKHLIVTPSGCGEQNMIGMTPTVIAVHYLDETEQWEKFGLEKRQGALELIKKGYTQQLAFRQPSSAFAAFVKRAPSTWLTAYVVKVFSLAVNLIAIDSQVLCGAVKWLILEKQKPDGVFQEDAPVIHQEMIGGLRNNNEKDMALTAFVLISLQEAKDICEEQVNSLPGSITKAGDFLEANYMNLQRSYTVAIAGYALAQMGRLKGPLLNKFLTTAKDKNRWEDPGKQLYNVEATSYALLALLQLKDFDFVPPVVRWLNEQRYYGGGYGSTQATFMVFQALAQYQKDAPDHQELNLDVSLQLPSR
T1 sequence (P01024 23-667 partner limits assumed): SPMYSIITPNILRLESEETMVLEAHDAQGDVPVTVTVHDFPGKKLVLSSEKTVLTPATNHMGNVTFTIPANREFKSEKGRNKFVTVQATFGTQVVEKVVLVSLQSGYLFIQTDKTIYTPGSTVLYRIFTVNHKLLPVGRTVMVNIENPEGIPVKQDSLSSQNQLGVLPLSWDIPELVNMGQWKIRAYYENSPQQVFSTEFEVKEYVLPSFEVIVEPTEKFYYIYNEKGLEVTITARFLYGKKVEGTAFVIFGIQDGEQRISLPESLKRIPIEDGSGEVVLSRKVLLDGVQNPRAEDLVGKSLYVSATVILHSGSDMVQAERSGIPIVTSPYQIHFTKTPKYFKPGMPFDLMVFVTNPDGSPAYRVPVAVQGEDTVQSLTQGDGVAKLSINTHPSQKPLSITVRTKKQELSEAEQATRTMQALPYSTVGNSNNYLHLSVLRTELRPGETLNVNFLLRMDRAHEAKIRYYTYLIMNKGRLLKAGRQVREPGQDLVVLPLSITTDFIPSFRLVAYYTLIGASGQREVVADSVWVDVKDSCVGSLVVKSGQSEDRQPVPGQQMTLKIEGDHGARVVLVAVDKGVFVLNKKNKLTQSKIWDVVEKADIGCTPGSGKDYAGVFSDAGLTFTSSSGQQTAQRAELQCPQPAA
T1 sequence (P01024 1321-1663 partner limits assumed): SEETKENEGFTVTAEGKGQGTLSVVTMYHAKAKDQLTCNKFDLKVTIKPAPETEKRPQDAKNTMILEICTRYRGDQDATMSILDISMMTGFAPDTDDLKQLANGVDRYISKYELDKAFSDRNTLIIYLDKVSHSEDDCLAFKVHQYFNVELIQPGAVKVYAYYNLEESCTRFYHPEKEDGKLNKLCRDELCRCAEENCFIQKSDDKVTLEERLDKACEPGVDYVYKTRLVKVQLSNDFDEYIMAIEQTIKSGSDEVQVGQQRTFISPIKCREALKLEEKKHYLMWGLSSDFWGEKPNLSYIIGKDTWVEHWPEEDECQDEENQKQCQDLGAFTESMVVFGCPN

B1: r11aA: recombinant CD11a A domain expressed as GST fusion protein (protein)
chain: GNVDLVFLFDGSMSLQPDEFQKILDFMKDVMKKLSNTSYQFAAVQFSTSYKTEFDFSDYVKRKDPDALLKHVKHMLLLTNTFGAINYVATEVFREELGARPDATKVLIIITDGEATDSGNIDAAKDIIRYIIGIGKHFQTKESQETLHKFASKPASEFVKILDTFEKLKDLFTELQKKIY
With B1, the “direct binding of EAiC3b to immobilized protein or peptide” value by setting is: (listed as rA-domain derived from CD11a/CD18) “did not bind”; (listed as rCD11a A-domain) “lack of binding”.
